Assay results reported in IntAct's records for PubMed 17937919.

Assays:
[1] = biological target: eed_mouse Eed (UniProt Q921E6)
[2] = biological target: Ezh2, Q61188-1
Sequence of Ezh2, Q61188-1 (Q61188 whole entry): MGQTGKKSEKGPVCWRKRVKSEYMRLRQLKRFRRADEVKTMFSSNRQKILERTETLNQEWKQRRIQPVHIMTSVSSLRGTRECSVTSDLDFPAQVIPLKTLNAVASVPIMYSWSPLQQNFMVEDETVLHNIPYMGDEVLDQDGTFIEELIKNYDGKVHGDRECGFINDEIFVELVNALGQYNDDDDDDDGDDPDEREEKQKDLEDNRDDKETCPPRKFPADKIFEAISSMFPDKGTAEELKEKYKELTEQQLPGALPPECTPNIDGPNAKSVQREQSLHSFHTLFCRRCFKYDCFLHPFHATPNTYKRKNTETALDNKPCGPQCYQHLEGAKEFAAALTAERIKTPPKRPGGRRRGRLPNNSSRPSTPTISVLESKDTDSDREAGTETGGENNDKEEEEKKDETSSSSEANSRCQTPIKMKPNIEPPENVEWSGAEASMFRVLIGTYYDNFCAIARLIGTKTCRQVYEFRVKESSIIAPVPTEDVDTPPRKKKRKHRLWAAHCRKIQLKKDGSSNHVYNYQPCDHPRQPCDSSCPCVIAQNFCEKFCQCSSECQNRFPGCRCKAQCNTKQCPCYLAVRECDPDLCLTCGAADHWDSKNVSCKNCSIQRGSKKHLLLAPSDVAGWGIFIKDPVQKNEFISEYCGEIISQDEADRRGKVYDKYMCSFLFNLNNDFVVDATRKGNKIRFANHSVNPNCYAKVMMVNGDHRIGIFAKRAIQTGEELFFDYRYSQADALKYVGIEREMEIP

Sequence of eed_mouse Eed (Q921E6 whole entry, looked up): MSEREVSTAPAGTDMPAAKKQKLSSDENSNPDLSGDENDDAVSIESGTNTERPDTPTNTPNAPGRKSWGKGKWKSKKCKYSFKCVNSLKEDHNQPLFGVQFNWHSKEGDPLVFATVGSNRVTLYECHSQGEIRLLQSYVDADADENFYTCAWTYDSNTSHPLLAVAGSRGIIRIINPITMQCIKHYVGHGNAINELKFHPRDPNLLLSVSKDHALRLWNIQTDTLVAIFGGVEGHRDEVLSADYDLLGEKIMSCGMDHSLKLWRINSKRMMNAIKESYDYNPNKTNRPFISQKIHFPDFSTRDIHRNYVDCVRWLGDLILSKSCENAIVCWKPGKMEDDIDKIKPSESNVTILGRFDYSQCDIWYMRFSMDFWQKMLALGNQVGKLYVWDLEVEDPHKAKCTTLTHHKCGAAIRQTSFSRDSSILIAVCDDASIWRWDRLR
Sequence of Polycomb protein EED (Mus musculus), Q921E6 L246E (Q921E6 whole entry L246E): as the sequence (Q921E6 whole entry, looked up) above, with L246E counted along it

Row | Substance | effect of a mutation on the interaction [1] | effect of a mutation on the interaction [2]
1 | Histone-lysine N-methyltransferase EZH2 (Mus musculus), Q61188-1 F42D | disrupting interaction | 
2 | Histone-lysine N-methyltransferase EZH2 (Mus musculus), Q61188-1 I49E | disrupting interaction | 
3 | Histone-lysine N-methyltransferase EZH2 (Mus musculus), Q61188-1 N45A | disrupting interaction | 
4 | Histone-lysine N-methyltransferase EZH2 (Mus musculus), Q61188-1 L56E | disrupting interaction | 
5 | Polycomb protein EED (Mus musculus), Q921E6 L246E |  | disrupting interaction
6 | Histone-lysine N-methyltransferase EZH2 (Mus musculus), Q61188-1 P67D | disrupting interaction | 
